In PMC10751729 (Protein Science : A Publication of the Protein Society, 2024):

Molecular target: GST‐LC3B (human, UniProt Q9GZQ8 1-120)
Experiment: AlphaScreen or HTRF

B1: LIRtide (peptide)
peptide: SGGDDDWTHLS
Q: Which IC50 does the source give for B1 here?
A: 1700 nM
